We go through five sequences from publication PMC4234207.

Data set [1] deals with T1, GST-FKH-FoxA2 (Rattus norvegicus (rat; cloned from genomic DNA)) (UniProt P32182).
T1 sequence (P32182 145-290, looked up): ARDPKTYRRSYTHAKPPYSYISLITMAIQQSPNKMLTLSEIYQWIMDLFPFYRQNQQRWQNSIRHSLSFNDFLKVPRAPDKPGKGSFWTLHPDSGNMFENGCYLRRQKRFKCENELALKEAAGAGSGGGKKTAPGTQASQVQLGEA
As to the kind of experiment: EMSA and self-competition. Particulars: reference probe; 25 mM HEPES pH 7.6, 150 mM KCl, 0.2 mM EDTA, 0.2 mM EGTA, 10% glycerol, 1 mM DTT, 3 ug protein, 1 ng 32P-TTR probe, 2/5/20 ng competitor, on ice 15 min; 4% …. (In general: A gel shift assay detects complexes by their altered migration in electrophoresis.)

For data set [2], the target named is T1, GST-FKH-FoxA2 (Rattus norvegicus (rat; cloned from genomic DNA)). As to the kind of experiment: competition EMSA. Particulars: 25 mM HEPES pH 7.6, 150 mM KCl, 0.2 mM EDTA, 0.2 mM EGTA, 10% glycerol, 1 mM DTT, 3 ug protein, 1 ng 32P-TTR probe, 2/5/20 ng competitor, on ice 15 min, 4% ….

Regarding “CAGTCGAGTTGACTAAGTCAATAATCAGAATCAGTCG (double strand) [TTR]”, the binding signal (EMSA score (TTR=1)) in data set [1] was 1.

“CAGTTGGGCATATTTGCTCAGAACCTGGTA (double strand) [FoxA BS chr1:159362347]” had a binding signal (EMSA score (TTR=1)) in data set [2] of 0.37.

For “CAGTTTCAAAGCTTGTTGACGGAGAGAAAT (double strand) [non-site chr17:25500984]”, the binding signal (EMSA score (TTR=1)) in data set [2] worked out at 0.2.

As for “CAGTTTGGGTCAATATTTATTCTTTCATTT (double strand) [FoxA BS chr19:38189585]”, in data set [2], the binding signal (EMSA score (TTR=1)) is 0.48.

As to “CGATCAAAACTAGGTCAAAGGTCA (double strand) [PPAR]”, the binding signal (EMSA score (TTR=1)) in data set [2] (negative control) came out at 0.
